We go through one molecule from patent US20210087522A1 (UNIVERSITY OF FLORIDA RESEARCH FOUNDATION, published 2021).

Assay [1] addresses T1, APPT, Sfp-like phosphopantetheinyl transferase (PPTase) from Anabaena sp. PCC7120 (Anabaena sp. PCC7120, UniProt P37695 1-237).
T1 construct: also called Anabaena PPTase
T1 sequence: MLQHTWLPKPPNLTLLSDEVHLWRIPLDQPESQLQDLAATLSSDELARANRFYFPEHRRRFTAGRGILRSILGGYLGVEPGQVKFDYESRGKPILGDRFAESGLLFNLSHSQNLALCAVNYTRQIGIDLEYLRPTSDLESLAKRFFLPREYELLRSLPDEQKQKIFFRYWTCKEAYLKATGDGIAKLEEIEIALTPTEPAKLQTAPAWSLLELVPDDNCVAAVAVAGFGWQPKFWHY
Nature of the assay: read from Km, Michaelis-Menten kinetics of phosphopantetheinylation (HPLC).

Assay [2] addresses T2, SPPT, Sfp-like phosphopantetheinyl transferase (PPTase) from Synechocystis sp. PCC6803 (Synechocystis sp. PCC6803, UniProt Q55185 1-246).
T2 construct: Recombinant protein with a His-tag from pET28b, made in E. coli
T2 sequence: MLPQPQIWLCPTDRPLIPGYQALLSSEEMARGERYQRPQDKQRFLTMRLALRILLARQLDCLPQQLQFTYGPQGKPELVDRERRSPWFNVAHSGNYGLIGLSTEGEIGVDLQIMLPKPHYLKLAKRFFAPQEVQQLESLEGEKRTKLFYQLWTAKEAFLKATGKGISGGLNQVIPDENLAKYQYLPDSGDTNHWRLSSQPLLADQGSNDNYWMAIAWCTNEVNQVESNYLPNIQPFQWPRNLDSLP
Described as above.

B1: SFACP, ACP of the FAS from Synechocystis (other)
chain: MDQEIFEKVKKIVVEQLEVDPDKVTPDATFAEDLGADSLDTVELVMALEEEFDIEIPDEVAETIDTVGKAVEHIESK
In the case of B1, the binding result in assay [1] and in assay [2] was “binds” throughout.
